“Also recorded” adds a separate entry of the source.
Tests used:
Assay type in all cases: cell-based, human
MCF-7 cells [1] = experiment: MTT colorimetric change and cell viability after reaction with Co-h substrate; settings: MCF-7, protein 10 μM 24 hours, Co-h 150 μM, without light irradiation
Experimental: MCF-7 cells were seeded at 5×10^5 cells/mL in a 96-well plate (SPL Cell Culture Plate, 96 well (SPL, Cat #30096)), and cultured at 37° C. for 24 hours (overnight).
(§1) After the culture for 24 hours, the cells were washed with FBS & Phenol red-free media (RPMI), and 100 μL of an FBS-free medium containing the purified protein (final concentration: 10 μM) was added, followed by reaction at 37° C. for 24 hours.
After the reaction for 24 hours, the cells were washed with FBS & Phenol red-free media (RPMI), and then 100 μL of FBS & Phenol red-free media (RPMI) containing a Co-h substrate solution (final concentration: 150 μM) was added. The cells were washed with FBS & Phenol red-free media (RPMI), and 100 μL of fresh FBS & Phenol red-free media (RPMI) were then added.
10 μL of 3-(4,5-dimethylthiazol-2-yl)-2,5-diphenyltetrazolium bromide (MTT) (final concentration: 1×) was added, followed by reaction at 37° C. for 4 hours. After 100 μL of a supernatant was removed, 100 μL of DMSO was added, followed by reaction for 10 minutes. The colorimetric change of MTT according to a protein type treated to the cells and the light irradiation time was checked, and then cell viability was confirmed by measuring the absorbance intensity at 570 nm using a plate reader.
MTT is an assay for measuring cell proliferation or live cells through the presence of blue-violet insoluble […] in the mitochondria of the live cells, where it has been reduced from a yellow soluble substrate, MTT tetrazolium, by the action of a dehydrogenase.

MCF-7 cells [2] = experiment: Cell death by SYTOX Green or EthD-1 and DAPI fluorescence (light irradiation or Co-h); settings: MCF-7, protein 10 μM 24 hours; light 10 mW/cm^2 or Co-h 150 μM over time
Experimental: as §1, with “MCF-7 cells were seeded at 5×10^5 cells/mL in a 96-well plate (SPL Cell Culture Plate, 96 well (SPL, Cat #30096)), and cultured at 37° C. for 24 hours (overnight). After” for “After”
After the reaction for 24 hours, the cells were washed with FBS & Phenol red-free media (RPMI), and then 100 μL of FBS & Phenol red-free media (RPMI) was then added.
After the reaction, 8.1 μL of FMN (final concentration: 150 μM) was added. After reaction for 18 hours or 24 hours, the cells were washed with FBS & Phenol red-free media (RPMI), and 100 μL of FBS & Phenol red-free media (RPMI) containing FMN (final concentration: 150 μM) was added, followed by reaction at 37° C. for 1 hour.
After the irradiation with light at 10 mW/cm^2 over time, 50 μL of SYTOX Green (Thermo Scientific Inc., USA; final concentration: 261 nM) staining DNA of dead cells was added and reacted at 37° C. for 30 minutes, and 10 μL of DAPI (Vecta Labs., Australia) staining DNA of live cells was added and reacted for 5 minutes.
SYTOX Green or EthD-1 and DAPI fluorescence images were observed using a confocal microscope according to a protein type treated to cells and i) light irradiation time or ii) reaction time with a Co-h substrate, and cell death was confirmed by measuring relative fluorescence intensity at an excitation wavelength of 504 nm and an emission wavelength of 523 nm of SYTOX Green, and an excitation wavelength of 525 nm and an emission wavelength of 590 nm of EthD-1 using a plate reader.
Whether or not Cell death was observed by fluorescence microscopy using SYTOX Green (dead cell-specific dye, green) or EthD-1 (dead cell-specific dye, red) and DAPI (live cell-specific dye, blue).

MCF-7 cells [3] = experiment: MTT colorimetric change and cell viability after light irradiation; settings: MCF-7, protein 10 μM 24 hours, light 10 mW/cm^2, no Co-h
Experimental: MCF-7 cells were seeded at 5×10^5 cells/mL in a 96-well plate (SPL Cell Culture Plate, 96 well (SPL, Cat #30096)), and cultured at 37° C. for 24 hours (overnight). After the overnight culture, the cells were washed with FBS & Phenol red-free media (RPMI, Well Gene., Korea, Cat #LM011-02), and 100 μL of an FBS-free medium containing the purified protein (final concentration: 10 μM) was added, followed by reaction at 37° C. for 24 hours. After the reaction for 24 hours, the cells were washed with FBS & Phenol red-free media (RPMI), and then 100 μL of FBS & Phenol red-free media (RPMI) was added again. After light irradiation at 10 mW/cm^2 over time, the cells were washed with FBS & Phenol red-free media (RPMI), and 100 μL of FBS & Phenol red-free media (RPMI) was added again. 10 μL of 3-(4,5-dimethylthiazol-2-yl)-2,5-diphenyltetrazolium bromide (MTT; Cell Biolabs Inc., USA; final concentration: 1×) was added, followed by reaction at 37° C. for 4 hours. 100 μL of a supernatant was removed, and 100 μL of DMSO (Sigma-Aldrich., USA) was added, followed by reaction for 10 minutes. The colorimetric change of MTT according to a protein type treated to the cells and light irradiation time was confirmed, and then cell viability was confirmed by measuring the absorbance intensity at 570 nm using a plate reader.

Molecule | cell viability / colorimetric change of MTT with reaction time with Co-h (MCF-7 cells [1]) | cell death by staining (SYTOX Green or EthD-1 dead cells, DAPI live cells) (MCF-7 cells [2]) | cell viability / colorimetric change of MTT with light irradiation time (MCF-7 cells [3])
RLuc8.6-KR: fusion protein of RLuc8.6 and KillerRed without lead peptide, 69 kDa (protein, pRSET-RLuc8.6-KillerRed) MRGSHHHHHHGMASMTGGQQMGRDLYDDDDKDPMASKVYDPEQRKRMITGPQWWARCKQMNVLDSFINYYDSEKHAENAVIFLHGNATSSYLWRHVVPHIEPVARCIIPDLIGMGKSGKSGNGSYRLLDHYKYLTAWFELLNLPKKIIFVGHDWGSALAFHYAYEHQDRIKAIVHMESVVDVIESWMGWPDIEEELALIKSEEGEKMVLENNFFVETLLPSKIMRKLEPEEFAAYLEPFKEKGEVRRPTLSWPREIPLVKGGKPDVVQIVRNYNAYLRASDDLPKLFIESDPGFFYNAIVEGAKKFPNTEFVKVKGLHFLQEDAPDEMGKYIKSFVERVLKNEQEFGGGMLCCMRRTKQVEKNDEDQKISEGGPALFQSDMTFKIFIDGEVNGQKFTIVADGSSKFPHGDFNVHAVCETGKLPMSWKPICHLIQYGEPFFARYPDGISHFAQECFPEGLSIDRTVRFENDGTMTSHHTYELDDTCVVSRITVNCDGFQPDGPIMRDQLVDILPNETHMFPHGPNAVRQLAFIGFTTADGGLMMGHFDSKMTFNGSRAIEIPGPHFVTIITKQMRDTSDKRDHVCQREVAYAHSVPRITSAIGSDED | the staining becomes pink | stained with DAPI | alive
KR: first protein KillerRed, ROS-generating protein (superoxide), expressed from pRSET-KillerRed, 31 kDa (protein, pRSET-KillerRed, first protein KillerRed, ROS-generating protein (superoxide), expressed from pRSET-KillerRed, 31 kDa) MRGSHHHHHHGMASMTGGQQMGRDLYDDDDKDPMLCCMRRTKQVEKNDEDQKISEGGPALFQSDMTFKIFIDGEVNGQKFTIVADGSSKFPHGDFNVHAVCETGKLPMSWKPICHLIQYGEPFFARYPDGISHFAQECFPEGLSIDRTVRFENDGTMTSHHTYELDDTCVVSRITVNCDGFQPDGPIMRDQLVDILPNETHMFPHGPNAVRQLAFIGFTTADGGLMMGHFDSKMTFNGSRAIEIPGPHFVTIITKQMRDTSDKRDHVCQREVAYAHSVPRITSAIGSDED | the staining becomes pink | stained with DAPI | alive
RLuc8.6-KR-LP: fusion protein of RLuc8.6, KillerRed and lead peptide WLEAAYQRFL, 71 kDa (protein, pRSET-RLuc8.6-KillerRed-Lead peptide) MRGSHHHHHHGMASMTGGQQMGRDLYDDDDKDPMASKVYDPEQRKRMITGPQWWARCKQMNVLDSFINYYDSEKHAENAVIFLHGNATSSYLWRHVVPHIEPVARCIIPDLIGMGKSGKSGNGSYRLLDHYKYLTAWFELLNLPKKIIFVGHDWGSALAFHYAYEHQDRIKAIVHMESVVDVIESWMGWPDIEEELALIKSEEGEKMVLENNFFVETLLPSKIMRKLEPEEFAAYLEPFKEKGEVRRPTLSWPREIPLVKGGKPDVVQIVRNYNAYLRASDDLPKLFIESDPGFFYNAIVEGAKKFPNTEFVKVKGLHFLQEDAPDEMGKYIKSFVERVLKNEQEFGGGMLCCMRRTKQVEKNDEDQKISEGGPALFQSDMTFKIFIDGEVNGQKFTIVADGSSKFPHGDFNVHAVCETGKLPMSWKPICHLIQYGEPFFARYPDGISHFAQECFPEGLSIDRTVRFENDGTMTSHHTYELDDTCVVSRITVNCDGFQPDGPIMRDQLVDILPNETHMFPHGPNAVRQLAFIGFTTADGGLMMGHFDSKMTFNGSRAIEIPGPHFVTIITKQMRDTSDKRDHVCQREVAYAHSVPRITSAIGSDEDGGGWLEAAYQRFL | die and cell viability is reduced | stained with SYTOX Green or EthD-1; also recorded: the number of dead cells increases | killed; also recorded: cell viability decreased
